# Assay results: the supplement of paper PMC12042874
# ± gives the uncertainty stated by the source.
# Assay: amyloid nucleation score (Sup35N fusion, yeast selection) (log enrichment); library NNK2; higher = more nucleation; inactive = no reads after selection
# Method in brief: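 Yeast lacking psi expressed peptides of 20 random codons fused to Sup35N, received 100 μM copper sulfate for 24 hours, and were then grown for 7 days at 30°C on medium lacking adenine and uracil. Illumina sequencing of input and output plasmid inserts provided the reads. Nucleation scores are DiMSum log enrichments of output over input, centred on the mode of non-aggregating sequences. Any sequence with under 100 input reads was excluded.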
row,Substance,amyloid nucleation score
1,YIFFSEKISTMSYSDKLRMA,5.89 ± 0.083
2,YIGEFGFILIPLRSFSPIPC,inactive
3,YIHVYVLMLGLNRQF,4.74 ± 0.071
4,YIIGNVRNVRLWFRLSMNEV,inactive
5,YIKFIFCP,inactive
6,YINVALWIMSFSGSVWGKEP,4.55 ± 0.064
7,YIQLGWGLSKTWSHLTGELA,2.34 ± 0.14
8,YIRLATYSLYALDWAVRKNR,-0.548 ± 1.1
9,YIRLHYGGVRRKVFTTILVI,-0.26 ± 0.45
10,YISNYPNVRLALDPTTCAGM,-0.452 ± 0.48
11,YITLQLVASRRRS,6.186 ± 0.045
12,YIVCKDSTSQVYYFSSDNFY,4.09 ± 0.095
13,YIVRNLVLLI,5.577 ± 0.036
14,YIVSSDLTGWGARRSCDFMA,0.571 ± 0.47
15,YIWRLLLLRGCTVNFMSCNM,5.62 ± 0.067
16,YKACRH,3.89 ± 0.055
17,YKDEGINEPYTVRTVHKLTT,0.215 ± 0.76
18,YKGEFFYWFKCVLYYKGNT,inactive
19,YKKGGLFDC,-1.38 ± 0.39
20,YKRHVGLRRNTLRQGYLLWF,-0.547 ± 1.1
21,YKRIHSSKFRPDYSHMV,-0.403 ± 1

row,Substance,amyloid nucleation score
1,YKVCRVFLVIYIHDFEWVVD,inactive
2,YLDRGYRGGFPFGKNVWTDG,-1.36 ± 0.78
3,YLGDTEQECAF,-1.37 ± 0.3
4,YLGNLSPQRLRCFISLWIVQ,-1.49 ± 1.1
5,YLGWVVCFRHCLIGH,0.145 ± 0.56
6,YLMRVRYSLCGLVVSVVAQD,0.856 ± 0.34
7,YLNWCSSSRNYLSMLYWPMV,-0.148 ± 0.5
8,YLRYLWSRQPCSAGSQVACR,-0.145 ± 1.1
9,YLSLNGVHYCIGSITIPSQR,8.06 ± 0.083
10,YLSLYGNGC,-0.627 ± 1.1
11,YLSTFCGVFIYLVNIPLGRA,4.48 ± 0.058
12,YLSVYCFMPVWDKWYRS,-1.57 ± 0.38
13,YLSWHNFVYRLVYIYSGYFN,inactive
14,YLTLEMLAVDE,-0.52 ± 1.1
15,YLVRMRYGAM,0.763 ± 0.43
16,YMALCLTAL,0.367 ± 0.47
17,YMDSKSNLARTFVRVCGLLG,0.097 ± 1.1
18,YMFMIRSGFV,-0.376 ± 0.37
19,YMFRDQVWYMTYKDYGHGIR,-0.249 ± 1.1
20,YMHSICLFIVDNKIDYLRGY,0.541 ± 0.74
21,YMLRIRTMSVPVFPVGFLGL,-0.275 ± 0.56

row,Substance,amyloid nucleation score
1,YMRMKW,3.46 ± 0.079
2,YMTTNRKPLDFYQHVYLMKV,inactive
3,YNAVA,inactive
4,YNAWSSWYLGVLRPIGCCNG,9.703 ± 0.046
5,YNCGTQRYLVFNNESNSFFS,3.18 ± 0.071
6,YNDVCLCNGSLGWKLVLE,-0.177 ± 1
7,YNKNSKFLGRFDCSLFI,-1.04 ± 1.1
8,YNLCSSCNIQWWCSRMHQQK,8.858 ± 0.055
9,YNPCLSRSHSKCLRTWLECR,1.26 ± 0.44
10,YNPVPFL,-0.788 ± 0.39
11,YNSLVRMRTRYIGR,0.025 ± 0.46
12,YNVGALASVSRFRDGFGLS,1.57 ± 0.1
13,YNVTTMYNYYLICISLATMY,7.09 ± 0.08
14,YNWGNASSSGVKPEPGGQPT,0.696 ± 0.27
15,YNYLAMPQMLMEYFISVVVS,2.05 ± 0.089
16,YPDIYGFEKRIDSPSNLGML,0.433 ± 0.6
17,YPIIVFAVLCFEWETYWCSL,0.015 ± 0.76
18,YPIVLRA,1.01 ± 0.48
19,YPVIPGISRLLNTQRIVFLG,-0.226 ± 0.21
20,YPWRYIFLSDPAGLIQTCRF,-1.34 ± 0.54
21,YQARVTMCIPAWTMSECSQC,-1.01 ± 0.76

row,Substance,amyloid nucleation score
1,YQLNWVKAASCSISLYFTFL,3.87 ± 0.082
2,YQRNSFNDHADYPYHELVKS,0.222 ± 0.64
3,YQYDNPVLDKT,-0.178 ± 0.55
4,YQYRDLLVIVRSTMKSNVSV,1.85 ± 0.1
5,YRAMESNRKRTPVKPVRCVV,2.85 ± 0.11
6,YRASHCQSFQ,-1.2 ± 1.1
7,YRCIMVATMWGPRVELGR,0.522 ± 0.39
8,YRFHSTKRCINSGDNC,-0.14 ± 1
9,YRFMTLVQHSYRCICLRLNA,-0.183 ± 0.33
10,YRHYIGRTSFTLY,-0.232 ± 1.1
11,YRLGLCGTFHINCVLINRDG,5.2 ± 0.056
12,YRLIYFVVLFEFLSVNR,-0.089 ± 0.79
13,YRLPRLRMLTLFLCFTNVGK,1.37 ± 0.2
14,YRPMEGRLKWSMTVLIVSLY,0.497 ± 0.46
15,YRSFSLCMCFYLYRSDDTLC,-1.69 ± 1.1
16,YRSVVDA,0.077 ± 0.54
17,YRVVM,1.22 ± 0.69
18,YSARRSGNFPVVRLMMNDLT,-0.153 ± 0.65
19,YSCRIDF,0.8 ± 0.54
20,YSDISQTRSASAIALGECRG,-0.879 ± 0.64
21,YSDSSSREMEQSGL,-0.199 ± 0.63
